Literature values, collected in paper PMC3772054.
pKd: −log10 of the molar value.

What was measured:
IL-2Rα (Homo sapiens) = IL-2Rα (Homo sapiens) (UniProt P01589)
IL-15Rα (Homo sapiens) = IL-15Rα (Homo sapiens) (UniProt Q13261)
Chain of UniProt Q13261 (Q13261 31-205): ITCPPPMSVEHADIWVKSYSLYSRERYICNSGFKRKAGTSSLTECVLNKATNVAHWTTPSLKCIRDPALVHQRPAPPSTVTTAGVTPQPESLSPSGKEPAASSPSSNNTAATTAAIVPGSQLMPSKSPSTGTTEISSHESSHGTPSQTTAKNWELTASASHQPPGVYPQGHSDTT

Chain of UniProt P01589 (P01589 22-240): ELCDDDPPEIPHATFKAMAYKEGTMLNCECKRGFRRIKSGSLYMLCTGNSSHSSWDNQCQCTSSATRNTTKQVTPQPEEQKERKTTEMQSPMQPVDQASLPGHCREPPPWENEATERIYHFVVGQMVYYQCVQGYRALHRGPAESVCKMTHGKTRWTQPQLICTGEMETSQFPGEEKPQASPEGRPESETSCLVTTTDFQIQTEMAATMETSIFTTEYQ

| pKd (IL-2Rα (Homo sapiens)) | pKd (IL-15Rα (Homo sapiens)) | Substance |
| --- | --- | --- |
| 8.32 |  | IL-2 (from UniProt P60568) |
|  | 10.42 | IL-15 (from UniProt P40933) |
